This note sets out measurements from publication PMC7054047.

Where two headings read alike, the source gives them in different places.

The target in assay [1] is Ol1WSCP. In words: SEC. On the technique in general: In gel filtration, larger molecules generally elute earlier.
Assay [2] concerns the target Ol1WSCP. In words: SEC. This is another data set of the same source.

The term stoichiometry N denotes the number of molecules, sites or subunits per partner or assembly. Turning to Ol1WSCP (natural protein), the stoichiometry N with Ol1WSCP [1] and with Ol1WSCP [2] was 4 in each case.
